Measurements reported in patent publication US9493537 (STC UNM, dated 2016).
Positions of bridges follow the written chain, without caps; N, C: chain ends. Non-standard residues stand in square brackets, D forms with d. *: point of attachment. DOTA = O=C(O)CN1CCN(CC(=O)O)CCN(CC(=O)*)CCN(CC(=O)O)CC1; Nle = CCCC[C@H](N)C(=O)O

B1: DOTA-GGNle-CycMSHhex (peptide)
peptide: {DOTA}-GG[Nle]DH[dF]RWK-NH2
modifications: lactam 4-9
SMILES: CCCC[C@H](NC(=O)CNC(=O)CNC(=O)CN1CCN(CC(=O)O)CCN(CC(=O)O)CCN(CC(=O)O)CC1)C(=O)N[C@H]1CC(=O)NCCCC[C@@H](C(N)=O)NC(=O)[C@H](Cc2c[nH]c3ccccc23)NC(=O)[C@H](CCCNC(=N)N)NC(=O)[C@@H](Cc2ccccc2)NC(=O)[C@H](Cc2c[nH]cn2)NC1=O
notes: Synthetic; also called DOTA-GlyGlyNle-CycMSHhex
B2: DOTA-GENle-CycMSHhex (peptide)
peptide: {DOTA}-GE[Nle]DH[dF]RWK-NH2
modifications: lactam 4-9
SMILES: CCCC[C@H](NC(=O)[C@H](CCC(=O)O)NC(=O)CNC(=O)CN1CCN(CC(=O)O)CCN(CC(=O)O)CCN(CC(=O)O)CC1)C(=O)N[C@H]1CC(=O)NCCCC[C@@H](C(N)=O)NC(=O)[C@H](Cc2c[nH]c3ccccc23)NC(=O)[C@H](CCCNC(=N)N)NC(=O)[C@@H](Cc2ccccc2)NC(=O)[C@H](Cc2c[nH]cn2)NC1=O
notes: Synthetic; also called DOTA-GlyGluNle-CycMSHhex
B3: DOTA-NleGE-CycMSHhex (peptide)
peptide: {DOTA}-[Nle]GEDH[dF]RWK-NH2
modifications: lactam 4-9
SMILES: CCCC[C@H](NC(=O)CN1CCN(CC(=O)O)CCN(CC(=O)O)CCN(CC(=O)O)CC1)C(=O)NCC(=O)N[C@@H](CCC(=O)O)C(=O)N[C@H]1CC(=O)NCCCC[C@@H](C(N)=O)NC(=O)[C@H](Cc2c[nH]c3ccccc23)NC(=O)[C@H](CCCNC(=N)N)NC(=O)[C@@H](Cc2ccccc2)NC(=O)[C@H](Cc2c[nH]cn2)NC1=O
notes: Synthetic; also called DOTA-NleGlyGlu-CycMSHhex

Tests used:
[1] = target: T1, melanocortin-1 (MC1) receptor on B16/F1 murine melanoma cells (mouse (B16/F1 murine melanoma cells), UniProt Q01727 1-315); experiment: competitive binding on B16/F1 melanoma cells against 125I-Tyr2-NDP-MSH; row head 'MC1R binding affinity (nM)'
T1 construct: whole, on cells; Endogenous receptor of the B16/F1 cells, in culture and as flank tumours in C57 mice; also called MCI receptor; MSH receptor
T1 sequence (Q01727 whole entry): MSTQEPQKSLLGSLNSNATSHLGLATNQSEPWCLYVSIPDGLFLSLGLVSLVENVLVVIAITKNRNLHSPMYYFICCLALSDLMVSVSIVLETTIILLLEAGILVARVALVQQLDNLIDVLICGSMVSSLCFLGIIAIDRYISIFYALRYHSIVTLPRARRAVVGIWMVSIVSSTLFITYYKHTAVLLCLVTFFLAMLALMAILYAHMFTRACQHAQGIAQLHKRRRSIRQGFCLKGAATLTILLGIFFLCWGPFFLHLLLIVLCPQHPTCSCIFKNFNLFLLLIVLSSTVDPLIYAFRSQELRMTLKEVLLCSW
Protocol: (§1) The medium was aspirated after the incubation. The cells were rinsed twice with 0.5 mL of ice-cold pH 7.4, 0.2% BSA/0.01 M phosphate buffered saline (PBS) and lysed in 0.5 mL of 1 N NaOH for 5 minutes. The activities associated with cells were measured in a Wallac 1480 automated gamma counter (PerkinElmer, Waltham, Mass.). The $IC50$ value of each peptide was calculated using Prism software (GraphPad Software, La Jolla, Calif.).

[2] = target: T1, melanocortin-1 (MC1) receptor on B16/F1 …; experiment: competitive binding on B16/F1 melanoma cells against 125I-Tyr2-NDP-MSH
Protocol: as §1

Binder	IC50 [1]	fold lower receptor binding affinity than DOTA-GGNle-CycMSHhex and DOTA-GENle-CycMSHhex [2]
B1	2.1 nM	–
B2	11.5 nM	–
B3	873 nM	≥ 78 fold
